Measured values as given in patent publication US20240124528A1 (ACADEMIA SINICA, published 2024).
Changes are numbered by the printed parent chain. In names and notes the source's numbering stands.

B1: IL-17RB-Flag (Flag-tagged IL-17RB, wild type) (receptor)
chain: REPTVQCGSETGPSPEWMLQHDLIPGDLRDLRVEPVTTSVATGDYSILMNVSWVLRADASIRLLKATKICVTGKSNFQSYSCVRCNYTEAFQTQTRPSGGKWTFSYIGFPVELNTVYFIGAHNIPNANMNEDGPSMSVNFTSPGCLDHIMKYKKKCVKAGSLWDPNITACKKNEETVEVNFTTTPLGNRYMALIQHSTIIGFSQVFEPHQKKQTRASVVIPVTGDSEGATVQLTPYFPTCGSDCIRHKGTVVLCPQTGVPFPLDNNKSKPGGWLPLLLLSLLVATWVLVAGIYLMWRHERIKKTSFSTTTLLPPIKVLVVYPSEICFHHTICYFTEFLQNHCRSEVILEKWQKKKIAEMGPVQWLATQKKAADKVVFLLSNDVNSVCDGTCGKSEGSPSENSQDLFPLAFNLFCSDLRSQIHLHKYVVVYFREIDTKDDYNALSVCPKYHLMKDATAFCAELLHVKQQVSAGKRSQACHDGCCSL
notes: The construct as expressed; also called Flag-IL-17RB; Flag-tagged WT IL-17RB; not shown: Flag tag
B2: IL-17RB Y447F, Flag-tagged (receptor)
chain: B1 chain with Y430F
notes: also called Y447F mutant of IL-17RB; not shown: Flag tag
B3: IL-17RB-HA (C-terminally HA-tagged full-length IL-17RB, wild type) (receptor)
chain: B1 chain
notes: Full-length IL-17RB subcloned into pcDNA3.1, expressed in 293T, IL-17RB-KO BxPC3 or SU.86.86 cells; also called HA-IL-17RB; HA-tagged WT IL-17RB; not shown: HA tag, C-terminal
B4: interleukin-17 receptor B (IL-17RB), human, endogenous in pancreatic cancer cells (receptor)
chain: B1 chain
notes: Endogenous receptor of CFPAC1 / BxPC3 cells, precipitated from lysates or stained in situ; also called interleukin-17B receptor
B5: IL-17RB ΔV403˜S416 (Del-3), Flag-tagged (receptor)
chain: REPTVQCGSETGPSPEWMLQHDLIPGDLRDLRVEPVTTSVATGDYSILMNVSWVLRADASIRLLKATKICVTGKSNFQSYSCVRCNYTEAFQTQTRPSGGKWTFSYIGFPVELNTVYFIGAHNIPNANMNEDGPSMSVNFTSPGCLDHIMKYKKKCVKAGSLWDPNITACKKNEETVEVNFTTTPLGNRYMALIQHSTIIGFSQVFEPHQKKQTRASVVIPVTGDSEGATVQLTPYFPTCGSDCIRHKGTVVLCPQTGVPFPLDNNKSKPGGWLPLLLLSLLVATWVLVAGIYLMWRHERIKKTSFSTTTLLPPIKVLVVYPSEICFHHTICYFTEFLQNHCRSEVILEKWQKKKIAEMGPVQWLATQKKAADKVVFLLSNDVNSENSQDLFPLAFNLFCSDLRSQIHLHKYVVVYFREIDTKDDYNALSVCPKYHLMKDATAFCAELLHVKQQVSAGKRSQACHDGCCSL
notes: not shown: Flag tag
B6: IL-17RB ΔN458˜V462 (Del-6), Flag-tagged (receptor)
chain: REPTVQCGSETGPSPEWMLQHDLIPGDLRDLRVEPVTTSVATGDYSILMNVSWVLRADASIRLLKATKICVTGKSNFQSYSCVRCNYTEAFQTQTRPSGGKWTFSYIGFPVELNTVYFIGAHNIPNANMNEDGPSMSVNFTSPGCLDHIMKYKKKCVKAGSLWDPNITACKKNEETVEVNFTTTPLGNRYMALIQHSTIIGFSQVFEPHQKKQTRASVVIPVTGDSEGATVQLTPYFPTCGSDCIRHKGTVVLCPQTGVPFPLDNNKSKPGGWLPLLLLSLLVATWVLVAGIYLMWRHERIKKTSFSTTTLLPPIKVLVVYPSEICFHHTICYFTEFLQNHCRSEVILEKWQKKKIAEMGPVQWLATQKKAADKVVFLLSNDVNSVCDGTCGKSEGSPSENSQDLFPLAFNLFCSDLRSQIHLHKYVVVYFREIDTKDDYCPKYHLMKDATAFCAELLHVKQQVSAGKRSQACHDGCCSL
notes: also called Del-6 (ΔN458-V462) IL-17RB; not shown: Flag tag
B7: IL-17RB ΔK470˜Q484 (Del-7), Flag-tagged (receptor)
chain: REPTVQCGSETGPSPEWMLQHDLIPGDLRDLRVEPVTTSVATGDYSILMNVSWVLRADASIRLLKATKICVTGKSNFQSYSCVRCNYTEAFQTQTRPSGGKWTFSYIGFPVELNTVYFIGAHNIPNANMNEDGPSMSVNFTSPGCLDHIMKYKKKCVKAGSLWDPNITACKKNEETVEVNFTTTPLGNRYMALIQHSTIIGFSQVFEPHQKKQTRASVVIPVTGDSEGATVQLTPYFPTCGSDCIRHKGTVVLCPQTGVPFPLDNNKSKPGGWLPLLLLSLLVATWVLVAGIYLMWRHERIKKTSFSTTTLLPPIKVLVVYPSEICFHHTICYFTEFLQNHCRSEVILEKWQKKKIAEMGPVQWLATQKKAADKVVFLLSNDVNSVCDGTCGKSEGSPSENSQDLFPLAFNLFCSDLRSQIHLHKYVVVYFREIDTKDDYNALSVCPKYHLMQVSAGKRSQACHDGCCSL
notes: not shown: Flag tag

How the values were obtained:
[1] = target: B3; assay: co-IP with anti-HA beads, 293T cells, rIL-17B (FIG. 4B)
[2] = target: B3; assay: co-IP with anti-HA beads, IL-17RB-KO BxPC3 cells, 50 ng/ml rIL-17B (FIG. 14B)
[3] = target: T1, HA-TRIM56 (TRIM56-HA, HA-tagged tripartite-motif 56) (UniProt Q9BRZ2 1-755); assay: co-IP in 293T cells (FIG. 6B) and native-PAGE of mixed purified proteins (FIG. 17A)
T1 construct: also called HA-tagged TRIM56; HA-TIM56; not shown: HA tag of the C-HA vector
T1 sequence (looked up): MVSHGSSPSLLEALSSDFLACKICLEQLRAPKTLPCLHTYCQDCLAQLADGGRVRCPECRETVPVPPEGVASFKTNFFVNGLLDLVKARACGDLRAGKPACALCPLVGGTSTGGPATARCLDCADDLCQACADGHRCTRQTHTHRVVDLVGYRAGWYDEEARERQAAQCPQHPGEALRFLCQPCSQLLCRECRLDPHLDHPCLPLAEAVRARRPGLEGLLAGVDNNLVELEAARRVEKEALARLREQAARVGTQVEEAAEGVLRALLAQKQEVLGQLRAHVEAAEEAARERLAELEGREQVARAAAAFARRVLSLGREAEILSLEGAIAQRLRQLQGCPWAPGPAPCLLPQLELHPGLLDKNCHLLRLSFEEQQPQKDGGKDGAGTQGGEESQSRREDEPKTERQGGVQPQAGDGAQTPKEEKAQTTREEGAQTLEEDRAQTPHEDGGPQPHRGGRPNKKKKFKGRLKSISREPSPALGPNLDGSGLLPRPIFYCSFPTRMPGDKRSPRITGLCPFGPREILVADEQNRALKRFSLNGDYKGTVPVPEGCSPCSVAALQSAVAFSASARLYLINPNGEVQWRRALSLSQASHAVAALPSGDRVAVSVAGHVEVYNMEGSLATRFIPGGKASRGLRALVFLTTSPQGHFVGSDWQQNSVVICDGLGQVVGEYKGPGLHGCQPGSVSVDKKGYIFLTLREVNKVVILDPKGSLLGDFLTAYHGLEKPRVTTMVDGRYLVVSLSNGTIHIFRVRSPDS

[4] = target: B1; assay: Duolink in situ interaction assay with anti-HA and anti-Flag, IL-17RB-KO BxPC3 cells (FIG. 4C, FIG. 13D)
[5] = target: the molecule itself; assay: Duolink in situ interaction assay with anti-IL-17RB (D9), CFPAC1 cells, 50 ng/ml rIL-17B (FIG. 4D)
[6] = target: T1, HA-TRIM56 (TRIM56-HA, HA-tagged …); assay: reciprocal co-IP, 293T cells, rIL-17B (FIG. 6D)
[7] = target: T2, TRIM56 (tripartite-motif 56), endogenous (human, UniProt Q9BRZ2 1-755); assay: co-IP with anti-Flag beads (FIG. 17F)
T2 construct: also called ubiquitin E3 ligase TRIM56
T2 sequence (looked up): T1 sequence (looked up)

Q: Does B1 bind [1]?
A: binds

Q: Does B2 bind [2]?
A: binds

Q: Does B2 bind [3]?
A: no binding

Q: Does B3 bind [4]?
A: binds

Q: Does B4 bind [5]?
A: binds

Q: Does B5 bind [6]?
A: no binding

Q: Does B6 bind [7]?
A: no binding (tested: 50 ng/ml rIL-17B)

Q: Does B6 bind [6]?
A: no binding

Q: Does B7 bind [6]?
A: no binding
